From patent publication US20040202665A1, “Compositions and methods for therapeutic treatment” (priority 2002, published 2004)

B1: L32: scFv antibody fragment of SEQ ID NO:3, screened against a leukemia cell (protein, listed as Homo sapiens)
scFv: MKYLLPTAAAGLLLLAAQPAMAEVQLVESGGGVVRPGGSLRLSCAASGFTFDLNPKVKHMWVRQAPGKGLEWVSGINWNGGSTGYADSVKGRFTISRDNAKNSLYLQMNSERAEDTAVYYCARMRAPVIWGQGTLVTVSRGGGGSGGGGSGGGGSSELTQDPAVSVALGQTVRITCQGDSLRSYYASWYQQKPGQAPVLVIYGKNNRPSGIPDRFSGSSSGNTASLTITGAQAEDEADYYCNSRDSSGNHVVFGGGTKLTVLGAAAEQKLISEEDLNGAA
B2: Y1: human scFv antibody fragment of SEQ ID NO: 1, selected from a phage library on fixed human platelets (protein, listed as Homo sapiens)
scFv: MKYLLPTAAAGLLLLAAQPAMAEVQLVESGGGVVRPGGSLRLSCAASGFSFDDYGMSWVRQAPGKGLEWVSGINWNGGSTGYADSVKGRFTISRDNAKNSLYLQMNSLRAEDTAVYYCARMRAPVIWGQGTLVTVSRGGGGSGGGGSGGGGSSELTQDPAVSVALGQTVRITCQGDSLRSYYASWYQQKPGQAPVLVIYGKNNRPSGIPDRFSGSSSGNTASLTITGAQAEDEADYYCNSRDSSGNHVVFGGGTKLTVLGAAAEQKLISEEDLNGAA

What was measured:
[1] = tested on: MOLT-4 (T leukemia) cells; experiment: Survival of MOLT-4 tumor-bearing mice after doxorubicin and Y1; assay type: in vivo; details: MOLT-4 tumor-bearing SCID mice; for survival of tumor-bearing mice (FIG. 1): 2 mg Dox/kg i.v. 1x/wk and/or 0.1 mg Y1 scFv/mouse i.v. 3x/wk, relative to control
Protocol: The present example examines the interaction between chemotherapy treatment and Y1 in the MOLT-4 tumor-bearing mice.
Initially, SCID mice (Jackson) were pretreated with 100 mg/kg CTX (Cytoxan-cyclophosphamid for injection, Mead Johnson). Five days after CTX injection, MOLT-4 (T leukemia) cells were inoculated intravenously (i.v.) through the tail vein with 2×10^7 cells. Mice were randomly divided into 5 treatment groups (13 per group), and they were treated, beginning 5 days after cell inoculation, as indicated in the table below. Tumor-bearing mice were treated for two weeks with sub-optimal dose of doxorubicin (Dox), in combination with Y1 given either concomitantly or after the Dox course of treatment. The response to the therapies was monitored as survival. As described above, the experimental groups were as follows: […]

platelets [2] = experiment: Binding to platelets
leukemic cells = experiment: Binding to leukemic cells
platelets [3] = experiment: Platelet aggregation; assay type: cell-based
[4] = tested on: primary leukemia cells derived from either AML or multiple myeloma (MM) patients; experiment: Affinity of Y1 to primary leukemia cells; assay type: binding

| Molecule | survival of tumor-bearing mice (FIG. 1) [1] | mean survival time (MST) ([1]; sub-optimal dose 2 mg Dox/kg i.v., 2 doses, 1x/wk, beginning day 5 post inoculation, control 39.08±0.8 days) [days] | binding to platelets (platelets [2]) | affinity of binding to leukemic cells relative to Y1 (leukemic cells) | effect on platelet aggregation (platelets [3]) | affinity to primary leukemia cells relative to glycocalicin, fibrinogen-gamma prime, complement compound 4 and PSGL-1 epitopes [4] |
| --- | --- | --- | --- | --- | --- | --- |
| COc1cccc2c1C(=O)c1c(O)c3c(c(O)c1C2=O)C[C@@](O)(C(=O)CO)C[C@@H]3O[C@H]1C[C@H](N)[C@H](O)[C@H](C)O1 [Dox, doxorubicin] | negative effect | 33.5 ± 1.68 |  |  |  |  |
| B1 |  |  | does not bind platelets | approximately five times greater affinity than Y1 | does not affect platelet aggregation |  |
| B2 | dramatic effect |  |  |  |  | several magnitudes higher |
